The values that follow come from CN113563464A (NAT CENTER FOR AIDS/STD CONTROL AND PREVENTION CHINA CDC, dated 2021).

B1: SW-C11 (antibody, V domains shown)
VH: EVQLVESGGGLIQPGGSLRLSCAASEFIVSRNYMSWVRQAPGTGLEWVSVIYPGGSTFYADSVKGRFTISRDNSKNTLYLQMDSLRVEDTAVYYCARDYGDFYFDYWGQGTLVTVSS
VL: EIVMTQSPVSLSVSPGERATLSCRASQGVASNLAWYQQKAGQAPRLLIYGASTRATGIPARFSGSGSGTEFTLTISTLQSEDSAVYYCQQYNDRPRTFGQGTKLEIKR
B2: WJQ-C11 (antibody, V domains shown)
VH: EVQLVESGGGLVQPGGSLRLSCAASGFAFSTYEMNWVRQAPGKGLEWVSYIHNSGNPVYYADSVKGRFTISRDNAENSLYLQMNSLRAEDTAIYYCARALRYSTSWYDYWGQGTLVTVSS
VL: EIVLTQSPVSLSLSPGERATLSCRASQSVSSYLAWYQQKPGQAPRLFIYDASKRATGIPARFSGSGSGTDFTLTISSLEPEDFAVYYCQQRSNWPRTFGQGTKVEIKR
B3: WJQ-G10 (antibody, V domains shown)
VH: EVQLVESGGGLVQPGESLRLSCAASGLTVSSNYMSWVRQAPGKGLEWVSVIYAGGSTFYADSVKGRFTISRDNSKNTLYLQMNSLRAEDMAIYYCARDLSYYGMDVWGQGTTVTVSS
VL: DIQLTQFPFSLSASVGDRVTITCRASQGISTYLAWYQQKPGRAPKLLIYAASTLQSGVPSRFSGSGSGTEFTLTISSLQPEDFATYYCQLLNSYPVHFGQGTKLEIKR

The assay deals with SARS-Cov-2的生物素化RBD (RBD蛋白, NC_045512, 6×His-Avi标签) (SARS-CoV-2, UniProt P0DTC2 319-541).
The term Kd denotes the concentration at which binding is half-saturated. Read a low Kd as higher affinity. With B1, the Kd is under 0.001 nM.

As for B2, binding was put at a Kd of 5.29 nM. In other words, the single-digit nanomolar range.

The molecule B3 yielded a Kd of 1.37 nM.
